This is an account of results in publication PMC9472474.

In this series the target is T1, GST-RBM45 (6xHis-GST) (human, UniProt Q8IUH3 1-476).
T1 sequence: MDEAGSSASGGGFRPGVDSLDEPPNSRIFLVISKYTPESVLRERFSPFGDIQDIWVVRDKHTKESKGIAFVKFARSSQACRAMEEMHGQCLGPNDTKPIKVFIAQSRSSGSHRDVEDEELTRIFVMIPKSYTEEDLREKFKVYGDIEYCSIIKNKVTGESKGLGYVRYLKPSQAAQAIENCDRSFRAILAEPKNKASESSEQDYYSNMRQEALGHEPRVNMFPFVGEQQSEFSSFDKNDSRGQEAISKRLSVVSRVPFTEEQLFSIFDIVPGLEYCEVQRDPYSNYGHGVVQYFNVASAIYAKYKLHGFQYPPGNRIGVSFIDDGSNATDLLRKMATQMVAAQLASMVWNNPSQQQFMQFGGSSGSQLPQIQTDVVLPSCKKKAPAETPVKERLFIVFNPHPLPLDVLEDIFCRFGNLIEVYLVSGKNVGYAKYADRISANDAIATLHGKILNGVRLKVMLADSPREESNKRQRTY
Nature of the series: fluorescence polarization. (Fluorescence polarisation rises when a labelled molecule tumbles more slowly, as on binding a larger partner.)

As for UUCUUCUGUGGACUGUG (ssRNA, m6A at A12) [FAM m6A ssRNA], the Kd (as a rule, the concentration at which binding is half-saturated) worked out at 462 ± 73 nM.
